The values that follow come from paper PMC7329128.

Holding throughout (assay): flow cytometry on cells
Background: Flow cytometry measures light scatter and fluorescence of single cells or particles in a stream.

The target of experiment [1] is membrane-anchored HCMV trimer (full-length gH, gL-FLAG, gO-8his), strain Merlin, on Expi293F cells, Q6SW67;F5HCH8. The settings on record: read at 100 nM soluble PDGFR-Fc (highest concentration); parent: est. 0.98; read off a plot.
The target of experiment [2] is membrane-anchored HCMV trimer (full-length gH, gL-FLAG, gO-8his), strain TB40/E, on Expi293F cells. The settings on record: fitted curve read at 100 nM soluble PDGFR-Fc (right end of the x axis); parent: est. 1.2; read off a plot.
Experiment [3] has as its target soluble HCMV glycoprotein trimer gH/gL/gO-sfGFP, strain TB40/E. The following applies: 1/3 dilution of medium containing gH/gL/gO-sfGFP, read off a plot.
Where [4] appears, read: + 100 nM PDGF competitor, parent: est. 0.33.
The mark [5] stands for this setting: w/o competitor, parent: est. 1.0.

Turning to “soluble PDGFRα-Fc (wild type, redesigned fusion to human IgG1 Fc) (from UniProt P16234-1) V242K”, the values for the ratio to parent in experiment [1] and in experiment [2] were 1 and 1.1, respectively.
On to “myc-tagged human PDGFRα (wild type) on Expi293F cells (from UniProt P16234-1) L137K”, for which the ratio to parent in experiment [3] (setting [4]) came to 0.85; in experiment [3] (setting [5]) it was 0.82.
On to “myc-tagged human PDGFRα (wild type) on Expi293F cells (from UniProt P16234-1) L137Q”, for which the ratio to parent is 0.71 in experiment [3] (setting [4]) and 0.9 in experiment [3] (setting [5]).
The like results for “myc-tagged human PDGFRα (wild type) on Expi293F cells (from UniProt P16234-1) V242T” were, in that order, 0.84 and 0.83.
Turning to “myc-tagged human PDGFRα (wild type) on Expi293F cells (from UniProt P16234-1) Y206S”, the ratio to parent in experiment [3] (setting [4]) amounted to 0.82; in experiment [3] (setting [5]) it was 0.85.
The like results for “myc-tagged human PDGFRα (wild type) on Expi293F cells (from UniProt P16234-1) V242K” were, in that order, 0.94 and 0.9.
“soluble PDGFRα-Fc (wild type, redesigned fusion to human IgG1 Fc) (from UniProt P16234-1) Y206S”: the ratio to parent in experiment [1] came out at 0.45; in experiment [2] it was 0.76.
